Measurements reported in US7982017B2, “Antibodies recognizing a carbohydrate containing epitope on CD-43 and CEA expressed on cancer cells and methods using same” (BioAlliance C.V., priority 2007, dated 2011).

Columns and labels:
COLO 205 cells [1] = test: Binding assay: flow cytometric binding of 5F1 antibodies to COLO 205 cells; settings: for binding to Colo 205 (words): FIG. 3, 0.125 to 4 ug/ml
Experimental: Purified m5F1, c5F1-v0, c5F1-v15 and c5F1-v16 antibodies at the concentration ranging from 0.125 to 4 ug/ml were added to 1.5×10^5 COLO 205 cells and incubated for 30 min at 4° C., washed for twice with PBS containing 2% FBS and 0.05% NaN3, followed by incubation with 1 μg/ml of corresponding secondary antibodies (R-PE-conjugated goat F(ab′)2 anti-mouse IgG(H+L), Southern Biotech, Cat. No. 1032-09; or R-PE-conjugated goat anti-human IgG, Southern Biotech, Cat. No. 2040-09) at 4° C. for 30 min. At the end of staining, samples were washed twice with PBS containing 2% FBS and 0.05% NaN3 and analyzed by flow cytometer. All flow cytometric analyses were performed on a BD-LSR flow cytometer (Becton Dickinson) using the Cell Quest software.
Purified m5F1, c5F1-v0, c5F1-yl7, c5F1-v24 and c5F1-v25 antibodies at 1 ug/ml were added to 2×10^5 Colo 205 cells and incubated for 30 min at 4° C., washed for twice with PBS containing 1% FBS, followed by incubation with 1 ug/ml of corresponding secondary antibodies (R-PE-conjugated goat F(ab′)2 anti-mouse IgG(H+L), Southern Biotech, Cat. No. 1032-09; or R-PE-conjugated goat anti-human IgG, Southern Biotech, Cat. No. 2040-09) at 4° C. for 30 min. At the end of staining, samples were washed twice with PBS containing 1% FBS and 0.05% NaN3 and analyzed by flow cytometer. All flow cytometric analyses were performed on a BD-LSR flow cytometer (Becton Dickinson) using the Cell Quest software.

COLO 205 cells [2] = test: Six-hour apoptosis assay (Annexin V / PI, FACS) in COLO 205; format: cell-based; settings: 6 h
Experimental: (§1) 1.5×10^5 of COLO 205 cells were seeded into the wells of 96-well plates. Aliquots of purified m5F1, c5F1-v0, c5F1-v15, c5F1-v16 and control antibodies at the concentration ranging from 2 to 32 ug/ml were prepared freshly in culture medium and added to each well. The sample treated with m9E10 and h16C11A were used as isotype control. The treated cells were kept at 37° incubator for 6 h before FACS analysis for apoptosis. For cellular apoptosis assay, Annexin V staining was measured using Annexin-V-FITC Apoptosis Detection Kit (Strong Biotech, Cat. No. AVK250) following the manufacturer's instruction. In brief, the treated cells were harvested and resuspended in Annexin V binding buffer containing Annexin V-FITC at room temperature. After 15 min incubation in the dark, the cells were washed twice with 200 μl of Annexin V binding buffer. Before FACS analysis, 0.25 μg/ml of propidium iodide (PI) was added. All flow cytometric analyses were performed on a BD-LSR flow cytometer (Becton Dickinson) using the Cell Quest software. The Annexin VI positive and/or PI positive cells are considered apoptotic cells.
1.5×10^5 of Colo205 cells were seeded into the wells of 96-well plates. Aliquots of purified m5F1, c5F1, c5F1-v17, c5F1-v24, c5F1-v25 and control antibodies at the concentration ranging from 8 to 32 ug/ml were prepared freshly in culture medium and added to each well. The treated cells were kept at 37° incubator for 6 h before FACS analysis for apoptosis. For cellular apoptosis assay, Annexin V staining was measured using Annexin-V-FITC Apoptosis Detection Kit (Strong Biotech, Cat. No. AV 250) following the manufacturer's instruction. In brief, the treated cells were harvested and resuspended in Annexin V binding buffer containing Annexin V-FITC at room temperature. After 15 min incubation in the dark, the cells were washed twice with 200 ul of Annexin V binding buffer. Before FACS analysis, 0.25 ug/ml of propidium iodide (PI) was added. All flow cytometric analyses were performed on a BD-LSR flow cytometer (Becton Dickinson) using the Cell Quest software. The Annexin VI positive and/or PI positive cells are considered apoptotic cells.

SU.86.86 cells [3] = test: Binding to SU.86.86 pancreatic cancer cells by flow cytometry
Experimental: Purified m5F1 and control antibodies at 1 ug/ml were added to 2×10^5 SU.86.86 cells and incubated for 1 hour at 4° C., washed twice with PBS containing 1% FBS, followed by incubation with 1 ug/ml of corresponding secondary antibodies (R-PE-conjugated goat F(ab′)2 anti-mouse IgG(H+L), Southern Biotech, Cat. No. 1032-09) at 4° C. for 1 hour. At the end of staining, samples were washed twice with PBS containing 1% FBS and analyzed by flow cytometer. All flow cytometric analyses were performed on a BD-LSR flow cytometer (Becton Dickinson) using the Cell Quest software.
(§2) Binding experiments were carried out for antibodies c5F1.v15, c5F1.v16, and c5F1.v24. […] Apoptosis assay was carried out for antibody c5F1.v15.

SU.86.86 cells [4] = test: Apoptosis induction of SU.86.86 cells (6 h, Annexin V / PI); format: cell-based
Experimental: as §1, with “2×10^5” for “1.5×10^5”, “SU86.86” for “COLO 205”, “12-well” for “96-well”, “m5F1” for “m5F1, c5F1-v0, c5F1-v15, c5F1-v16 and control antibodies”, “Control antibody at 32 ug/ml was included for background signal measurement.” for “The sample treated with m9E10 and h16C11A were used as isotype control.”
as §2

B1: c5F1-v16: chimeric 5F1, heavy chain v16 (hinge C220S), light chain v0[L] (antibody)
heavy: EVQLQQSGPELVKPGASVRMSCTASGYTFTSYVMHWIKQKPGQGLDWIGYINPYNGGTQYNEKFKGKATLTSDKSSSTAYMELSSLTSEDSAVYYCARRTFPYYFDYWGQGTTLTVSSASTKGPSVFPLAPSSKSTSGGTAALGCLVKDYFPEPVTVSWNSGALTSGVHTFPAVLQSSGLYSLSSVVTVPSSSLGTQTYICNVNHKPSNTKVDKKVEPKSSDKTHTCPPCPAPELLGGPSVFLFPPKPKDTLMISRTPEVTCVVVDVSHEDPEVKFNWYVDGVEVHNAKTKPREEQYNSTYRVVSVLTVLHQDWLNGKEYKCKVSNKALPAPIEKTISKAKGQPREPQVYTLPPRDELTKNQVSLTCLVKGFYPSDIAVEWESNGQPENNYKTTPPVLDSDGSFFLYSKLTVDKSRWQQGNVFSCSVMHEALHNHYTQKSLSLSPGK
light: DVLMTQTPLSLPVSLGDQASISCRSSQSILHSNGNTYLEWYLQKPGQSPKLLIYKVSNRFSGVPDRFSGSGSGTDFTLKISRVEAEDLGVYYCFQGSHAPLTFGAGTKLELKRTVAAPSVFIFPPSDEQLKSGTASVVCLLNNFYPREAKVQWKVDNALQSGNSQESVTEQDSKDSTYSLSSTLTLSKADYEKHKVYACEVTHQGLSSPVTKSFNRGEC
For B1, the “binding to Colo 205 (words)” value (COLO 205 cells [1]) was “relatively less compared to c5F1”, the “binding to Colo 205 (words)” value (COLO 205 cells [1]; listed as c5F1v16) was “significant binding” and the “apoptosis-inducing activity in COLO 205” value (COLO 205 cells [2]; 2 to 32 ug/ml, compared with m5F1) was “almost as efficient as m5F1”. The “% of Annexin V and/or PI positive cells” value (COLO 205 cells [2]; Table 7, 4 ug/ml) was 58%, the “% of Annexin V and/or PI positive cells” value (COLO 205 cells [2]; Table 7, 8 ug/ml) was 78% and the “% of Annexin V and/or PI positive cells” value (COLO 205 cells [2]; Table 7, 16 ug/ml) was 92%. For the same molecule, the “% of Annexin V and/or PI positive cells” value (COLO 205 cells [2]; Table 7, 32 ug/ml) was 96% and the “binding to SU.86.86 cells” value (SU.86.86 cells [3]) was “significant binding”.

B2: m5F1: murine antibody 5F1, isotype murine IgG3; heavy chain V region SEQ ID NO:1, light chain V region SEQ ID NO:2 (antibody, V domains shown)
VH: MEWSWIFLFLLSGTAGVHSEVQLQQSGPELVKPGASVRMSCTASGYTFTSYVMHWIKQKPGQGLDWIGYINPYNGGTQYNEKFKGKATLTSDKSSSTAYMELSSLTSEDSAVYYCARRTFPYYFDYWGQGTTLTVSS
VL: MKLPVRLLVLMFWIPASSSDVLMTQTPLSLPVSLGDQASISCRSSQSILHSNGNTYLEWYLQKPGQSPKLLIYKVSNRFSGVPDRFSGSGSGTDFTLKISRVEAEDLGVYYCFQGSHAPLTFGAGTKLELK
modifications: Murine
For B2, the “binding to Colo 205 (words)” value (COLO 205 cells [1]) was “significant binding”, the “Median Fluorescence Intensity (MFI)” value (COLO 205 cells [1]; Table 10, antibodies at 1 ug/ml) was 800 and the “% of Annexin V and/or PI positive cells” value (COLO 205 cells [2]; Table 7, 2 ug/ml) was 35%. The “% of Annexin V and/or PI positive cells” value (COLO 205 cells [2]; Table 7, 4 ug/ml) was 53%, the “% of Annexin V and/or PI positive cells” value (COLO 205 cells [2]; Table 7, 8 ug/ml) was 76% and the “% of Annexin V and/or PI positive cells” value (COLO 205 cells [2]; Table 7, 16 ug/ml) was 92%. For the same molecule, the “% of Annexin V and/or PI positive cells” value (COLO 205 cells [2]; Table 7, 32 ug/ml) was 93%, the “% of Annexin V and/or PI positive cells” value (COLO 205 cells [2]; Table 11 Exp. 1, 8 ug/ml) was 88% and the “% of Annexin V and/or PI positive cells” value (COLO 205 cells [2]; Table 11 Exp. 1, 16 ug/ml) was 92%. The “% of Annexin V and/or PI positive cells” value (COLO 205 cells [2]; Table 11 Exp. 1, 32 ug/ml) was 92%, the “% of Annexin V and/or PI positive cells” value (COLO 205 cells [2]; Table 11 Exp. 2, 8 ug/ml) was 89% and the “% of Annexin V and/or PI positive cells” value (COLO 205 cells [2]; Table 11 Exp. 2, 16 ug/ml) was 94%. The “% of Annexin V and/or PI positive cells” value (COLO 205 cells [2]; Table 11 Exp. 2, 32 ug/ml) was 96%, the “binding to SU.86.86 cells” value (SU.86.86 cells [3]) was “could bind” and the MFI (SU.86.86 cells [3]; Table 14, antibody at 1 ug/ml) was 131. The “% of Annexin V and/or PI positive cells” value (SU.86.86 cells [4]; 2 ug/ml) was 60%, the “% of Annexin V and/or PI positive cells” value (SU.86.86 cells [4]; 4 ug/ml) was 72% and the “% of Annexin V and/or PI positive cells” value (SU.86.86 cells [4]; 8 ug/ml) was 78%. The “% of Annexin V and/or PI positive cells” value (SU.86.86 cells [4]; 16 ug/ml) was 89%, the “% of Annexin V and/or PI positive cells” value (SU.86.86 cells [4]; 32 ug/ml) was 91% and the “apoptosis induction in SU.86.86 cells” value (SU.86.86 cells [4]; 2 to 32 ug/ml) was “induced apoptosis”.
